Test results published in patent US12448434B2, “Antibodies specifically recognizing Pseudomonas PcrV and uses thereof” (priority 2019, dated 2025).

Assays:
[1] = tested on: P. aeruginosa (PA103 strain); test: Prophylactic mouse acute pneumonia model, organ burden; type: in vivo, BALB/c mice; conditions: 10 mg/kg i.p. 24 hr before infection, 0.5*LD90
Description: In a prophylactic model, 7-8 week old BALB/c mice (Vital River Laboratory) were administered with antibodies or PBS intraperitoneally (i.p.) 24 hr before infection, at 10 mg/kg mouse weight. To induce acute pneumonia, the BALB/c mice were intranasally inoculated with P. aeruginosa (PA103 strain) suspended in a 40 μl inoculum at half the lethal dose (0.5*LD90; 3×10^5 CFU). 24 hours post-infection, mice were euthanized, where the lungs, spleens and kidneys were extracted, homogenized and diluted before plating on agar to measure the viable bacteria units (in CFU), which represented the P. aeruginosa burden in the respective organ sample.

[2] = rat, in vivo, iv
Description: Pharmacokinetic profile in rat: 40 healthy adult rats (about 0.2 kg by weight) were equally into two groups, where each group registered similar average weight. One group was injected intravenously with 30 mg/kg of V2L2-MD, 7C1, 7B1, 8C1 or 6D10 and the other group was injected intravenously with 3 mg/kg of V2L2-MD, 7C1, 7B1, 8C1 or 6D10. Blood was collected at […], and subsequently at 0 hour, 0.5 hour, 2 hour, 8 hour, 1 day, 3 days, 7 days, 11 days, 17 days, 23 days, 31 days, 41 days and 52 days after injection. After centrifugation, the plasma was used for analyzing antibody concentration using ELISA. For the ELISA experiment, synthetic PcrV was used to coat the wells of a 96-well plate. On the following day, after washing with PBST, blocking with 200 μL PBS-milk for an hour, and another wash with PBST, the plasma was added and incubated for an hour at 37° C. The plate was washed with 0.1% TBST for 6 times before 100 μL of Goat-anti-human Fc antibody-AP (1:3000 in PBS) was added to each well and incubated for an hour. After washing with 0.1% TBST for 6 times, 50 μL of pNPP was added to each well and color was developed for 10-20 minutes at 37° C. The signals were read by a microplate reader at 410 nm.

[3] = tested on: P. aeruginosa (PA103 strain); test: Therapeutic mouse acute pneumonia model, survival; type: in vivo, BALB/c mice; conditions: i.v. 1 h post-infection, 1 mg/kg or 10 mg/kg; 1*LD90; 6 days
Description: In a therapeutic model, to induce acute pneumonia, 7-8 week old BALB/c mice (Vital River Laboratory) were intranasally inoculated with P. aeruginosa (PA103 strain) suspended in a 40 μl inoculum at a lethal dose (1*LD90=8×10^5 CFU). Antibodies or PBS were administered intravenously (i.v.) at 1 h post-infection, at a dose of 1 mg/kg or 10 mg/kg mouse weight. Mouse survival was recorded for up to 6 days post-infection.

BV particles = test: Cross-reactivity to BV particles by ELISA; type: binding; conditions: FIG. 3
Description: Cross-reactivity to BV particles: Using ELISA, optimized antibodies 7C1, 7B1, 8C1, 6D10, and reference antibodies V2L2-MD and Mab166 were tested for cross-reactivity to BV particles according to the method described previously (See Hötzel I, et al, 2012, mAbs 4:6, 753-760).

PcrV = test: BIACORE binding to PcrV; set-up: species or system Pseudomonas aeruginosa; conditions: data not shown
Description: The association constant (ka), dissociation constant (kd) and the equilibrium dissociation constant (kD) for binding of optimized anti-PcrV mAb clones 7B1, 7C1, 8C1, 6D10 and reference antibody V2L2-MD to PcrV were tested by BIACORE (GE company).

[4] = tested on: PcrV mutants (with mutations at position 225); test: Binding to PcrV mutants with mutations at position 225; set-up: species or system Pseudomonas aeruginosa; conditions: data not shown
Description: To further illustrate the optimized antibodies could broadly neutralize P. aeruginosa strains, the abilities of these antibodies to bind various forms of PcrV mutants were tested. Briefly, 100 PcrV sequences were randomly selected from Genebank database. In contrast to the wild type sequence as shown in SEQ ID No: 71, 13% of the selected sequences contained R, G, or K at position 225 (as compared of S in the wild type sequence SEQ No: 71), which was the main mutation around the epitope of 7B1.
These findings further illustrate that the optimized anti-PcrV antibodies could neutralize a broad spectrum of P. aeruginosa strains, which might express various forms of PcrV mutants.

PcrV-negative A549 cells = test: Cross-reactivity to PcrV-negative A549 cells by FACS; type: cell-based, human; conditions: FIGS. 4A-4E, compared with no antibody and V2L2-MD
Description: Cross-reactivity to A549 cells: Using FACS, parental antibody 13-42, optimized antibodies 7C1, 7B1, 8C1, 6D10 as well as V2L2-MD were tested for cross-reactivity to PcrV-negative A549 cells.

[5] = tested on: Strain 57/66(O6) P. aeruginosa; test: RBC lysis inhibition assay, strain 57/66(O6); type: cell-based, Pseudomonas aeruginosa; conditions: Table 7
Description: Monoclonal scFv antibodies were selected and assessed for biological activity by RBC lysis assay. Briefly, red blood cells (RBCs) were prepared from fresh whole human or rabbit blood by centrifugation, supplemented with EDTA and rinsed with multiple phosphate-buffered saline (PBS) washes. Washed RBCs (2.5% [vol/vol] final) in Dulbecco's modified Eagle's medium (DMEM) plus 10% fetal bovine serum (FBS) (Gibco) and purified anti-PcrV antibodies diluted in PBS were combined into wells of a round-bottom 96-well plate. Strain 57/66(O6) P. aeruginosa was grown to mid-log phase in 2× YT medium (Oxford), harvested by centrifugation, and resuspended in DMEM-fetal bovine serum (FBS) at an optical density at 600 nm (OD600) of 0.15. Ten microliters of bacterial suspension was added to the RBC-antibody mixture, mixed by agitation, and incubated for 3 hours at 37° C. and 5% CO2. The plates were briefly centrifuged (1000 rpm, 1 min) to pellet the intact RBCs, the supernatants transferred to a flat-bottom 96-well plate, and the OD405 was measured to detect any lysis, from which the relative amount of lysis inhibition was calculated and plotted. IC50 values for the antibodies were also determined.
The ability of optimized anti-PcrV mAb clones 7B1, 7C1, 8C1, 6D10, 6A10, 5B3, 3B12, 4A10, 2B1, 7B2, 3H10, 3G3, 9B12, 3A9, 2D3, 7B1-1F5, to inhibit red blood cell lysis was compared to the parental 13-42 mAb and the reference antibody V2L2-MD. RBC lysis inhibition assay was performed as described in Example 1.
The optimized anti-PcrV mAb clones 7C1, 8C1, and 7B1 were further analyzed for their abilities to inhibit red blood cell lysis by various strains of P. aeruginosa, namely strains O1-52/66, O16-177/81, and O6-57/66, as compared to the parental 13-42 mAb and the reference antibody V2L2-MD. RBC lysis inhibition assay was performed as described in Example 1.

B1: 6D10: optimized anti-PcrV mAb clone; VH SEQ ID NO: 61, VL SEQ ID NO: 65 (antibody, V domains shown)
VH: EVQLLESGGGLVQPGGSLRLSCTASGFTFSDYPMSWVRQAPGKGLDWVSGISESGGSTNYADSVKGRFSTSRDNSKSTLYLDMNSLRAEDTAIYYCAKGRFSTDSSHFYRAVYGMDVWGQGTAVTVSS
VL: DIQLTQSPSSLSASVGDRVTITCRASQGISSYLAWYQQKPGKAPKLLIYAASTLQSGVPSRFSGSGSGTDFTLTISSLQPEDFATYYCQQLSSYPLSFGGGTKVEIK
[1]; FIG. 8B
  reduction of organ burden in the lung, spleen and kidney relative to HIV-10E8: higher efficacy in reducing organ burden
  reduction of organ burden in the lung, spleen and kidney relative to V2L2-MD: comparable efficacy in reducing organ burden
[2]
  half-lives relative to reference antibody V2L2-MD: comparable to or longer than that of reference antibody V2L2-MD
[3]
  survival improvement relative to V2L2-MD: survival improvement comparable to that of V2L2-MD
BV particles
  non-specific binding to BV particles: low levels of non-specific binding
PcrV
  association and dissociation kinetics in PcrV binding (ka and kd values): comparable association and dissociation kinetics
[4]
  binding to PcrV mutants with R, G or K at position 225: strongly bind these mutants
PcrV-negative A549 cells
  binding to PcrV-negative A549 cells: similarly low levels of A549 binding

B2: 13-42: lead parental full-length human IgG1 anti-PcrV antibody; VH SEQ ID NO: 48, VL SEQ ID NO: 65 (antibody, V domains shown)
VH: EVQLLESGGGLVQPGGSLRLSCTASGFTFSDYPMSWVRQAPGKGLDWVSGISESGGSTNDADSVKGRFSTSRDNSKSTLYLDMNSLRAEDTAIYYCAKGRFCTNSSCFFRAVYGMDVWGQGTAVTVSS
VL: DIQLTQSPSSLSASVGDRVTITCRASQGISSYLAWYQQKPGKAPKLLIYAASTLQSGVPSRFSGSGSGTDFTLTISSLQPEDFATYYCQQLSSYPLSFGGGTKVEIK
[1]; 24 hours post-infection, FIG. 8A
  reduction of organ burden in the lung relative to V2L2-MD: better efficacy in reducing organ burden in the lung
PcrV-negative A549 cells
  binding to PcrV-negative A549 cells: similarly low levels of A549 binding

B3: 9B12: optimized anti-PcrV mAb clone; VH SEQ ID NO: 64, VL SEQ ID NO: 67 (antibody, V domains shown)
VH: EVQLLESGGGLVQPGGSLRLSCTASGFTFSDNPMSWVRQAPGKGLDWVSVISESGGSTNDADSVKGRFSTSRDNSKSTLYLDMNSLRAEDTAIYYCAKGRFSTNSDHFYRAVYGMDVWGQGTAVTVSS
VL: DIQLTQSPSSLSASVGDRVTITCRASQGISSYLAWYQQKPGKAPKLLIYAASTLQSGVPSRFSGSGSGTDFTLTISSLQPEDFATYYCQQLSSYPLTFGGGTKVEIK
[5]
  RBC lysis assay IC50: 0.07 µg/mL

B4: 7B1-1F5: optimized anti-PcrV mAb clone; VH SEQ ID NO: 62, VL SEQ ID NO: 70 (antibody, V domains shown)
VH: EVQLLESGGGLVQPGGSLRLSCTASGFTFSDNYMSWVRQAPGKGLDWVSVISESGGSTNYADSVKGRFSTSRDNSKSTLYLDMNSLRAEDTAIYYCAKGRFSTLSSHFFRAVYGMDVWGQGTAVTVSS
VL: DIQLTQSPSSFSASTGDRVTITCRASQGISSYLAWYQQKPGKAPKVLIYAASTLQSGVPSRFSGSGSGTEFTLTISSLQPEDFATYYCQQLKSYPLTFGGGTKLEIK
[5]
  RBC lysis assay IC50: 0.19 µg/mL

B5: 2D3: optimized anti-PcrV mAb clone; VH SEQ ID NO: 53, VL SEQ ID NO: 65 (antibody, V domains shown)
VH: EVQLLESGGGLVQPGGSLRLSCTASGFTFSDNHMSWVRQAPGKGLDWVSGISESGGSTYYADSVKGRFSTSRDNSKSTLYLDMNSLRAEDTAIYYCAKGRFSYDTRHFFRAVYGMDVWGQGTAVTVSS
VL: DIQLTQSPSSLSASVGDRVTITCRASQGISSYLAWYQQKPGKAPKLLIYAASTLQSGVPSRFSGSGSGTDFTLTISSLQPEDFATYYCQQLSSYPLSFGGGTKVEIK
[5]
  RBC lysis assay IC50: 0.05 µg/mL
